Assay results: publication PMC3489827 (PLoS ONE, 2012)

What was measured:
[1] = biological target: HeV-G globular head domain (174–602) (Hendra virus) (UniProt O89343); test: crystal structure
Ephrin-B2 (S27-D167) = biological target: T1, Ephrin-B2 (S27-D167) (UniProt P52799 27-167); test: crystal structure; conditions: both partners purified
T1 construct: also called ephrin-B2 receptor; not shown: Fc, C-terminal, cleaved
T1 sequence (looked up): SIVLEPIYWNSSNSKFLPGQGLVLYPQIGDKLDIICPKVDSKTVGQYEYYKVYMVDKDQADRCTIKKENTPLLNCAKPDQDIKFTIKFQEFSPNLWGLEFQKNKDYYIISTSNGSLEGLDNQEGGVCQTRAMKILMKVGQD

“HeV-G globular head domain (174–602) (from UniProt O89343 174-602) (domain or fragment)” showed a stoichiometry N [1] of 2.

B1: HeV-G globular head domain (174–602) (domain or fragment)
chain: ISQGVSDLVGLPNQICLQKTTSTILKPRLISYTLPINTREGVCITDPLLAVDNGFFAYSHLEKIGSCTRGIAKQRIIGVGEVLDRGDKVPSMFMTNVWTPPNPSTIHHCSSTYHEDFYYTLCAVSHVGDPILNSTSWTESLSLIRLAVRPKSDSGDYNQKYIAITKVERGKYDKVMPYGPSGIKQGDTLYFPAVGFLPRTEFQYNDSNCPIIHCKYSKAENCRLSMGVNSKSHYILRSGLLKYNLSLGGDIILQFIEIADNRLTIGSPSKIYNSLGQPVFYQASYSWDTMIKLGDVDTVDPLRVQWRNNSVISRPGQSQCPRFNVCPEVCWEGTYNDAFLIDRLNWVSAGVYLNSNQTAENPVFAVFKDNEILYQVPLAEDDTNAQKTITDCFLLENVIWCISLVEIYDTGDSVIRPKLFAVKIPAQCS
In the case of B1, the “stoichiometry N” value (Ephrin-B2 (S27-D167)) is reported as 1.
